Reference: the supplement of paper PMC10567573
± gives the standard deviation.

Test: protein stability index of a GFP-peptide fusion (GPS, HEK-293T) (PSI 1-6); higher = more stable
[1] = treatment: DMSO, c terminus: a fixed tail appended
[2] = treatment: MLN4924 1 uM, 8 h, c terminus: a fixed tail appended
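Further: 24-mer peptide tiles fused after GFP, lentivirally expressed, FACS-sorted into six equal bins by GFP/DsRed ratio, decoded by Illumina sequencing, PSI is the read-weighted mean bin number.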

Sequence | protein stability index [1] | protein stability index [2] | protein stability index (treatment: DMSO, c terminus: native) | protein stability index (treatment: MLN4924 1 uM, 8 h, c terminus: native)
EGGVLRGSKLEKGHLRGPEIRDWR [ZSWIM9] | 3.8 ± 0.2 | 4.02 ± 0.31 | – | –
DTLDHIRALDRLQEVPHEGPMCDL [PPP2CA] | 4.76 ± 0.24 | 4.8 ± 0.066 | – | –
TTREIRRQEAIYEMSRGEQDLIED [NET1] | 5.25 ± 0.16 | 5.13 ± 0.17 | – | –
PVIKIPECPSMGTNEAACLLDNPL [RHOBTB1] | 4.33 ± 0.16 | 4.41 ± 0.24 | – | –
QGAKERAHQQKKHSGFEDELSEVL [CHGA] | 5.23 ± 0.25 | 5.27 ± 0.23 | – | –
PILQGQIDALLEFDVHPNELTNGV [SNAP91] | 3.42 ± 0.29 | 3.4 ± 0.45 | – | –
GTVVALLNVHDLDSEQNGQVTCSI [PCDHGA10] | 2.23 ± 0.34 | 2.58 ± 0.24 | – | –
TELPELLKLYYRRLFPYSQYYRWL [PRIM1] | 2.93 ± 0.79 | 2.47 ± 0.67 | – | –
GSSDHSVIMWDIGGRKGTAIELQG [WDFY2] | 2.84 ± 0.43 | 2.83 ± 0.2 | – | –
TLCAMLPLLLFTYLNSFLHQRIPQ [SLC29A1] | 3.18 ± 0.14 | 3.06 ± 0.17 | – | –
ELFSYLRNRGRFSSTTGLFYSAEI [PRKX] | 2.36 ± 0.84 | 2.44 ± 1.3 | – | –
PPASPPADGSPPLLPPGEPPLLGT [ANKRD40] | 5.17 ± 0.26 | 5.42 ± 0.14 | – | –
SRPQSSRPVLLSKIEGHQDAVTAA [WDFY1] | 4.28 ± 0.33 | 4.3 ± 0.35 | – | –
TEDIQTRQYRSIEVLIGAGYSTPA [SRPK2] | 2.94 ± 0.4 | 2.87 ± 0.5 | – | –
NVPNPRIKLIDFGIAHKIEAGNEF [DAPK3] | 3.2 ± 0.087 | 3.1 ± 0.35 | – | –
WRGNGINVLKIAPESAIKFMAYEQ [SLC25A25] | 2.19 ± 0.29 | 2.36 ± 0.19 | – | –
TNLLEGAVAFMPEDITKGTQSLPT [AUP1] | 4.55 ± 0.12 | 4.47 ± 0.17 | – | –
IRKYNYVAMDTEFPGVVARPIGEF [CNOT7] | 2.21 ± 0.19 | 2.16 ± 0.2 | – | –
EKQSRCVNIEWHRFRFGQDQLLLA [WSB1] | 2.14 ± 0.24 | 2.6 ± 0.42 | – | –
TATCTTNNNPNSCVNIKKIFTDV [KCNA3] | – | – | 4.08 ± 0.24 | 3.97 ± 0.11
VEAKSWTASSSYGKGEGPIWLDNL [LOXL2] | 2.42 ± 0.31 | 2.61 ± 0.74 | – | –
RATSLGRPEEEEDELAHRCSSFMA [CPOX] | 4.68 ± 0.33 | 4.71 ± 0.17 | – | –

Sequence | protein stability index [1] | protein stability index [2] | protein stability index (treatment: DMSO, c terminus: native) | protein stability index (treatment: MLN4924 1 uM, 8 h, c terminus: native)
KRPARLHTKPSQAPAVEVAPAGAS [NOP53] | 4.77 ± 0.42 | 4.96 ± 0.19 | – | –
VAHCHQSAIVLGDLKLRKFVFSTE [TRIB1] | 2.25 ± 0.36 | 2.36 ± 0.63 | – | –
NLKFITDPFVCRLRHLSPTPSEEH [OR4A15] | 2.54 ± 0.11 | 3 ± 0.2 | – | –
GAILTTMLATRNFSGGKSGGNKKS [CAMK2A] | 3.67 ± 0.24 | 3.63 ± 0.41 | – | –
QQRLAHLEDKLRLLAQARDEAQGA [LRRC45] | 4.29 ± 0.28 | 4.37 ± 0.36 | – | –
GSAVEVQTYQPPWKALSEFALQSD [ISL2] | 3.61 ± 0.4 | 3.73 ± 0.39 | – | –
VFQTEQKNLFRLEMDMVVFRPEMK [N4BP2L1] | 2.02 ± 0.26 | 2.16 ± 0.092 | – | –
IATYRSLLEGQDAKMAGIGIREAS [KRT15] | 3.09 ± 0.23 | 3.25 ± 0.1 | – | –
KTKKLYIDSRARRNLGSINTELQD [SEC22B] | 3.87 ± 0.22 | 4.08 ± 0.21 | – | –
LATQEPTDNQVRLRKRKEIREDRD [DLC1] | 5.41 ± 0.24 | 5.39 ± 0.16 | – | –
FCADNPSELPPPMERTGGIGDSRP [DVL3] | 4.45 ± 0.32 | 4.62 ± 0.32 | – | –
LNIVPRTKVVYLASETFNYSAIDR [PI4K2A] | 2.28 ± 0.18 | 2.07 ± 0.2 | – | –
EISALNGNRINVPMVRKRSVSNST [DLC1] | 3.5 ± 0.071 | 3.5 ± 0.32 | – | –
FVLSLVKKHYRLQFYMFGWTHVTL [CDS2] | 2.99 ± 0.57 | 2.99 ± 0.67 | – | –
HWFRKGLRLHDNPALKECIQGADT [CRY1] | 3.11 ± 0.19 | 3.45 ± 0.38 | – | –
YQIYDVSGESNSAVSTEDLKECLK [LARP4] | 4.2 ± 0.18 | 4.2 ± 0.19 | – | –
TVTLTVAVADSIPQVLADLGSFES [PCDHGA10] | 2.28 ± 0.32 | 2.11 ± 0.093 | – | –
PDAWCDLSKFDLPEEPSAEDSINN [MYBL2] | 5.52 ± 0.12 | 5.42 ± 0.31 | – | –
LGACVAPGGNLIVELARYLVDVRQ [DNAAF3] | 2.57 ± 0.44 | 2.12 ± 0.2 | – | –
APDRLRASASCSHWRECLFYPALW [FBXO33] | 2.33 ± 0.43 | 2.28 ± 0.26 | – | –
NRRRFRVRQPILQYRWDMMHRLGE [BEX1] | 2.31 ± 0.15 | 2.17 ± 0.29 | – | –
PENVEDSGLDSPSHAAPGPSPDSW [FCHO1] | 5.37 ± 0.13 | 5.46 ± 0.2 | – | –

Sequence | protein stability index [1] | protein stability index [2] | protein stability index (treatment: DMSO, c terminus: native) | protein stability index (treatment: MLN4924 1 uM, 8 h, c terminus: native)
SLKFKSRVPQTWSKRLYGVYDNEK [PLD5] | 2.55 ± 0.39 | 2.71 ± 0.74 | – | –
SRVTMILFVLELEWVLSTGQDKQF [WDFY2] | 3.1 ± 0.31 | 3.09 ± 0.66 | – | –
SQLDEDEHGLHTKYIHRMMQIEFI [TRAF3IP2] | 2.44 ± 0.1 | 2.56 ± 0.34 | – | –
PGGPRNLKPTASKLGAPLSGLQGL [PDLIM4] | 3.54 ± 0.21 | 3.54 ± 0.053 | – | –
TGLVYDQNMMNHCNLWDSHHPEVP [HDAC6] | 3.08 ± 0.29 | 3.25 ± 0.18 | – | –
TTGPNPFTTLTDRELEEYRREVER [ADD1] | 5.08 ± 0.18 | 5.16 ± 0.21 | – | –
YPTDNTKVMIFKSSYSLSDMVSNI [MIA2] | 2.51 ± 0.62 | 2.436 ± 0.003 | – | –
PAMQRYVKRLHEVGRTEPELLVAH [HMOX1] | 3.1 ± 0.29 | 3.37 ± 0.29 | – | –
GSQDGHFVLSCSYDGLDCQARQFR [SCNN1D] | 2.52 ± 0.12 | 2.71 ± 0.29 | – | –
LLRREPAERLTATGILLHPWLRQD [TRIB3] | 2.47 ± 0.27 | 2.45 ± 0.25 | – | –
LDGHTISDLSRSSRGELIPISPST [MYBL2] | 4.14 ± 0.13 | 4.33 ± 0.3 | – | –
YLTSQLPPLREIILGPSSAYTQTQ [NFE2L1] | 2.38 ± 0.3 | 2.52 ± 0.1 | – | –
VILISRISSVGGEAMFCDFPKINH [CFHR2] | 3.66 ± 1.3 | 2.97 ± 0.21 | – | –
QGWVREHCPESGEEAVILLEDLER [ZSCAN9] | 4.36 ± 0.12 | 4.7 ± 0.28 | – | –
NRFEVTLEKSNKNFSKKIQQIHVV [VPS39] | 2.36 ± 0.4 | 2.42 ± 0.22 | – | –
MENKKKDKDKSDDRMARPSGRSGH [CSNK1G3] | 5.42 ± 0.34 | 5.31 ± 0.44 | – | –
QDAVDQVKVIMDALDERAKVLHED [TRIM29] | 4.93 ± 0.1 | 4.93 ± 0.34 | – | –
FKTGNSTATCTTNNNPNSCVNIKK [KCNA3] | 4.53 ± 0.15 | 4.58 ± 0.36 | – | –
PIGELYGLSESSGPHTISNQNNYR [ACSBG2] | 3.91 ± 0.31 | 4.07 ± 0.57 | – | –
VLMLLVALLFTGIAVLGIVMLKRI [SCAMP3] | 2.85 ± 0.63 | 3.02 ± 0.73 | – | –
SKRLYGVYDNEKKLQLQLNETKSQ [PLD5] | 4.19 ± 0.27 | 4 ± 0.18 | – | –
